Target: Prp43p-HIS (S. cerevisiae, UniProt P53131 1-767)
Assay: cell-based or functional assay

Sequence of Prp43p-HIS (P53131 whole entry): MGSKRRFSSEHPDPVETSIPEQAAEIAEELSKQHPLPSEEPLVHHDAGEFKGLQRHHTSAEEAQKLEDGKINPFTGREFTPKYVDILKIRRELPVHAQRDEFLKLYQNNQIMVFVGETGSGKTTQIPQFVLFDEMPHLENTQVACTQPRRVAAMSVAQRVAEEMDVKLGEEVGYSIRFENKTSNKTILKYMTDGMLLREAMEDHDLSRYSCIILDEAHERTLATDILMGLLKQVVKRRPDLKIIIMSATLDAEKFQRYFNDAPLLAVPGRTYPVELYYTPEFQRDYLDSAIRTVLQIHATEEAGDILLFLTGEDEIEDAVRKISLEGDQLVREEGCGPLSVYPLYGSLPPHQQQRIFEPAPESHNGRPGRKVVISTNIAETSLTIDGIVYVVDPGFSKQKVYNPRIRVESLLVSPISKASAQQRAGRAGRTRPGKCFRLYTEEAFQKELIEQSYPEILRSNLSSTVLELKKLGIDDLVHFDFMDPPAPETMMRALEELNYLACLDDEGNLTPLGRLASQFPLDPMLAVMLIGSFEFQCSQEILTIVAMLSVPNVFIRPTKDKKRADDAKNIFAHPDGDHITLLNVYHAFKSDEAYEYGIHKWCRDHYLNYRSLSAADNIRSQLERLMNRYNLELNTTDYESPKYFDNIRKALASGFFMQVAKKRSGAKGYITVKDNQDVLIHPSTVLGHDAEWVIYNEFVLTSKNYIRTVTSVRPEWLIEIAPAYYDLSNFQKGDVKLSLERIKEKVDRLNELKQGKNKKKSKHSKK

B1: GST-PINX1-HIS (natural protein, human, UniProt Q96BK5 1-328, looked up)
chain: MSMLAERRRKQKWAVDPQNTAWSNDDSKFGQRMLEKMGWSKGKGLGAQEQGATDHIKVQVKNNHLGLGATINNEDNWIAHQDDFNQLLAELNTCHGQETTDSSDKKEKKSFSLEEKSKISKNRVHYMKFTKGKDLSSRSKTDLDCIFGKRQSKKTPEGDASPSTPEENETTTTSAFTIQEYFAKRMAALKNKPQVPVPGSDISETQVERKRGKKRNKEATGKDVESYLQPKAKRHTEGKPERAEAQERVAKKKSAPAEEQLRGPCWDQSSKASAQDAGDHVQPPEGRDFTLKPKKRRGKKKLQKPVEIAEDATLEETLVKKKKKKDSK
- ATP hydrolysed by Prp43p-HIS after 60 min of incubation, with GST-PINX1-HIS against without (0.1 μM proteins, 100 μM ATP, 30°C): 9 fold

— publication PMC4066782, “The telomerase inhibitor Gno1p/PINX1 activates the helicase Prp43p during ribosome biogenesis” (Nucleic Acids Research, 2014)
